{"source": "patent US20100285597", "proteins": {"B1": {"name": "BACE1 (protein)", "chain": "ETDEEPEEPGRRGSFVEMVDNLRGKSGQGYYVEMTVGSPPQTLNILVDTGSSNFAVGAAPHPFLHRYYQRQLSSTYRDLRKGVYVPYTQGKWEGELGTDLVSIPHGPNVTVRANIAAITESDKFFINGSNWEGILGLAYAEIARPDDSLEPFFDSLVKQTHVPNLFSLQLCGAGFPLNQSEVLASVGGSMIIGGIDHSLYTGSLWYTPIRREWYYEVIIVRVEINGQDLKMDCKEYNYDKSIVDSGTTNLRLPKKVFEAAVKSIKAASSTEKFPDGFWLGEQLVCWQAGTTPWNIFPVISLYLMGEVTNQSFRITILPQQYLRPVEDVATSQDDCYKFAISQSSTGTVMGAVIMEGFYVVFDRARKRIGFAVSACHVHDEFRTAAVEGPFVTLDMEDCGYNIPQTDESTLMTIAYVMAAICALFMLPLCLMVCQWRCLRCLRQQHDDFADDISLLK"}}, "key": {"[1]": {"molecular_target": "T1, T310A point mutant of nectin-1", "T1 chain": "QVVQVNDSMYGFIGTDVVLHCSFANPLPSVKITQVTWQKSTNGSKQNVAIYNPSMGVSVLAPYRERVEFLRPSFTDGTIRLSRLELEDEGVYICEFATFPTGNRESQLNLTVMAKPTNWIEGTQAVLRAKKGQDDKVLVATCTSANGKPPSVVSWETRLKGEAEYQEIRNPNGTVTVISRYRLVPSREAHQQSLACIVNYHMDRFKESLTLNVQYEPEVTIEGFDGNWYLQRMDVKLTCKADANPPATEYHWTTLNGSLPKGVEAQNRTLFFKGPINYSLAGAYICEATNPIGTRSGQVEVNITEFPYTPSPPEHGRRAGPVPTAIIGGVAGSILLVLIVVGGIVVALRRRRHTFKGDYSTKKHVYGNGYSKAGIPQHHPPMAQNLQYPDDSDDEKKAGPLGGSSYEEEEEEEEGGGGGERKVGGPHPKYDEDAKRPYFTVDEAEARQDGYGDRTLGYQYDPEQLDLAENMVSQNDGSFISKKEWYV"}, "[2]": {"molecular_target": "T2, S323A point mutant of nectin-1", "T2 chain": "T1 chain with A283T, S296A"}, "[3]": {"molecular_target": "T3, Y311A point mutant of nectin-1", "T3 chain": "T1 chain with A283T, Y284A"}}, "note": "Residue numbers refer to the chain shown, from its start.", "data": [{"protein": "B1", "values": [{"measurement": "production of CTF bands (Western blot of HEK 293 lysates)", "setting": "[1]", "result": "somewhat less effectively increased production in the other two mutants, T310A and Y311A"}, {"measurement": "production of CTF bands (Western blot of HEK 293 lysates)", "setting": "[2]", "result": "Co-expression with BACE1 substantially increased production of CTF bands for the nectin-1 polypeptide mutant S323A"}, {"measurement": "production of CTF bands (Western blot of HEK 293 lysates)", "setting": "[3]", "result": "somewhat less effectively increased production in the other two mutants, T310A and Y311A"}]}]}
